Results: patent US20120034212A1 (AstraZeneca / MedImmune, published 2012)
Read-outs that look alike come from different tables or passages of the source.

Assays:
recombinant human IL-6 [1] = biological target: T1, recombinant human IL-6 (human, UniProt P05231 30-212); assay: affinity estimated from the TF-1 Cell Proliferation Assay (cell-based, not a direct binding assay); Example 1 summarises WO 2008/065378; estimated from the TF-1 Cell Proliferation Assay, not BIAcore
T1 construct: The ELISA used an E. coli expressed recombinant human IL-6 preparation; The TF-1 assay used recombinant bacterially derived human IL-6 (R&D); also called rhuIL-6

recombinant human IL-6 [2] = biological target: T1, recombinant human IL-6; assay: cell-based or functional assay
[3] = biological target: endogenous human IL-6 produced by human synovial fibroblasts (human) (UniProt P05231); assay: cell-based or functional assay
[4] = biological target: endogenous human IL-6 produced by human synovial fibroblasts (human) (UniProt P05231)
recombinant human IL-6 [5] = biological target: T1, recombinant human IL-6; assay: BIAcore; Example 1 summarises WO 2008/065378; BIAcore; bound at the assay's detection level
recombinant human IL-6 [6] = biological target: T1, recombinant human IL-6; assay: ELISA, E. coli expressed rhuIL-6 as capture reagent
Protocol: ELISA assays were performed according to standard protocols.

human FcRn = biological target: T2, human FcRn (human, UniProt P55899 24-297; P61769 21-119, limits assumed); assay: BIAcore, pH 6
T2 construct: also called huFcRn

cynomolgus FcRn = biological target: T3, cynomolgus FcRn (cynomolgus, UniProt Q8SPV9 24-297; Q8SPW0 21-119, limits assumed); assay: BIAcore, pH 6
T3 construct: also called cynoFcRn; cyno FcRn

[7] = biological target: T4, endogenous human IL-6 produced by human synovial fibroblasts (human, UniProt P05231 30-212); assay: cell-based or functional assay
[8] = biological target: T4, endogenous human IL-6 produced by human …; assay: cell-based or functional assay; remark: listed apart in the source
recombinant human IL-6 [9] = biological target: T1, recombinant human IL-6; assay: cell-based or functional assay; remark: listed apart in the source
recombinant human IL-6 [10] = biological target: T1, recombinant human IL-6; assay: ELISA, E. coli derived recombinant human IL-6 as capture reagent; drawn table 'Avg EC50 (pM)', n = 4

T2 sequence (P55899 24-297 limits assumed, chain 1 of 2): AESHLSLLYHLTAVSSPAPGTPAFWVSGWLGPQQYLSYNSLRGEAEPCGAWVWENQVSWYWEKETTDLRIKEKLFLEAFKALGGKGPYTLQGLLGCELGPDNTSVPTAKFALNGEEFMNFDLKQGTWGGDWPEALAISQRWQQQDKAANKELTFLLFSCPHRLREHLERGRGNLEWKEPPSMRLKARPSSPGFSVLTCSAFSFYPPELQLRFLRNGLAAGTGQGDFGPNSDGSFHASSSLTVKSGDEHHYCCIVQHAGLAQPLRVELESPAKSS
T2 sequence (P61769 21-119 limits assumed, chain 2 of 2): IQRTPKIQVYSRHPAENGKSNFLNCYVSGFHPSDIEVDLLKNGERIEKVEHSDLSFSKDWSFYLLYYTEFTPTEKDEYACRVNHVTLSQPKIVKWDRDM
Chain of endogenous human IL-6 produced by human synovial fibroblasts (human) (P05231 30-212): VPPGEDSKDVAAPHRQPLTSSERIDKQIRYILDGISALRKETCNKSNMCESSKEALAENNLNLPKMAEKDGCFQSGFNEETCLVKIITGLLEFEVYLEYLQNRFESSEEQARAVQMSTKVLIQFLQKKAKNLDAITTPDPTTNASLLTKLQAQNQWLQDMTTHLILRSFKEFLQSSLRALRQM
T3 sequence (Q8SPV9 24-297 limits assumed, chain 1 of 2): as the sequence (P55899 24-297 limits assumed, chain 1 of 2) above, with N39D, E44Q, G99S, S189G, S190N, L217M, S269T counted along it
T3 sequence (Q8SPW0 21-119 limits assumed, chain 2 of 2): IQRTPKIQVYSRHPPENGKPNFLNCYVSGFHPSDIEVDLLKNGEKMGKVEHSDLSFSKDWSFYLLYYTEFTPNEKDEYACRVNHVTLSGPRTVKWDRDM

| Binder | Kd (recombinant human IL-6 [1]) | IC50, inhibition of IL-6 induced TF-1 cell proliferation (recombinant human IL-6 [2]) | IC50, inhibition of endogenous IL-6 induced VEGF release from human synovial fibroblasts [3] | IC50, inhibition of endogenous IL-6 induced VEGF release from human synovial fibroblasts [4] | Kd (recombinant human IL-6 [5]) | EC50 (recombinant human IL-6 [6]) | Kd (human FcRn) | Kd (cynomolgus FcRn) | IC50, inhibition of endogenous IL-6 induced VEGF release from human synovial fibroblasts [7] | IC50, inhibition of endogenous IL-6 induced VEGF release from human synovial fibroblasts [8] | IC50, inhibition of IL-6 induced TF-1 cell proliferation (recombinant human IL-6 [9]) | EC50 (recombinant human IL-6 [10]) |
| --- | --- | --- | --- | --- | --- | --- | --- | --- | --- | --- | --- | --- |
| Antibody 18 (antibody, V domains shown, Human anti-IL-6 IgG1 with a wild type Fc region; It is the parent of Antibody 18E; also called Ab 18) VH: EVQLVESGGGLVQPGGSLRLSCAASGFTISSNYMIWVRQAPGKGLEWVSDLYYYAGDTYYADSVKGRFTMSRDISKNTVYLQMNSLRAEDTAVYYCARWADDHPPWIDLWGRGTLVTVSS VL: DIQMTQSPSTLSASVGDRVTITCRASQGISSWLAWYQQKPGKAPKVLIYKASTLESGVPSRFSGSGSGTEFTLTISSLQPDDFATYYCQQSWLGGSFGQGTKLEIK | 0.0004 nM | 0.0045 nM | 0.0013 nM | 1.3 nM | < 0.01 nM | 0.0061 nM | 2610 nM | 1160 nM |  |  |  |  |
| Antibody 18E (antibody, human IgG1, kappa, Antibody 18 with the M252Y, S254T and T256E substitutions (EU index) in the IgG1 Fc region; Expressed in CHO-K1 cells; also called Ab 18E) heavy: EVQLVESGGGLVQPGGSLRLSCAASGFTISSNYMIWVRQAPGKGLEWVSDLYYYAGDTYYADSVKGRFTMSRDISKNTVYLQMNSLRAEDTAVYYCARWADDHPPWIDLWGRGTLVTVSSASTKGPSVFPLAPSSKSTSGGTAALGCLVKDYFPEPVTVSWNSGALTSGVHTFPAVLQSSGLYSLSSVVTVPSSSLGTQTYICNVNHKPSNTKVDKRVEPKSCDKTHTCPPCPAPELLGGPSVFLFPPKPKDTLYITREPEVTCVVVDVSHEDPEVKFNWYVDGVEVHNAKTKPREEQYNSTYRVVSVLTVLHQDWLNGKEYKCKVSNKALPAPIEKTISKAKGQPREPQVYTLPPSREEMTKNQVSLTCLVKGFYPSDIAVEWESNGQPENNYKTTPPVLDSDGSFFLYSKLTVDKSRWQQGNVFSCSVMHEALHNHYTQKSLSLSPGK light: DIQMTQSPSTLSASVGDRVTITCRASQGISSWLAWYQQKPGKAPKVLIYKASTLESGVPSRFSGSGSGTEFTLTISSLQPDDFATYYCQQSWLGGSFGQGTKLEIKRTVAAPSVFIFPPSDEQLKSGTASVVCLLNNFYPREAKVQWKVDNALQSGNSQESVTEQDSKDSTYSLSSTLTLSKADYEKHKVYACEVTHQGLSSPVTKSFNRGEC |  | 0.0052 nM |  |  |  | 0.0065 nM | 226 nM | 365 nM | 0.0012 nM | 0.0012 nM |  |  |
| IL-6 antibody A (antibody, V domains shown) VH: QEQLVESGGGLVQPEGSLTLTCIASGWSFSSSHYMCWVRQAPGKGLEWIGCIYTGSGMTYYASWAKGRFTISKTSSTTVTLQMTSLTAADTATYFCARKIGGTDDYGDSLYFSLWGQGTLVTVSS VL: AQVLTQTPSPVSAAVGGTVTINCQASQSVYNNSKLAWYQQKPGQPPKLLIYKASSLASGVSSRFKGSGSGTQFTLTISGVQCDDAATYYCQHEFSCSSADCVAFGGGTEVVVKG |  |  |  |  |  |  |  |  | 2.8 nM |  | 0.0059 nM | 0.0078 nM |
| IL-6 antibody B (antibody, V domains shown) VH: QSVEESGGRLVTPGTPLTLTCTVSGFSLSAYDMYWVRQAPGKGLEWIGITYGSGKTYYARWAKGRFTISKTSTTVALKITSPTTEDTATYFCARDSGYPGGSSAYNLWGQGTLVTVSS VL: AAVLTQTPSAVSAAVGGTVTISCQSSQSVTVNNDLAWYQQRPGQPPKLLIYRASNLASRVPSRFSGSGSGTQFTLTISGVQCDDAATYYCLGGYDDDASNAFGGGTEVVVKG |  |  |  |  |  |  |  |  | 2.2 nM |  | 0.0781 nM | 0.0141 nM |
